Test results reported in patent US20100260805A1 (CIRCASSIA, published 2010).

T1: DQA1*0102/DQB1*0602 (human, UniProt P01920 33-230, limits assumed)
T1 construct: human MHC class II allotype
T1 MHC II alpha: not shown
T1 MHC II beta: not shown


Tests used:
HLA-DRB1*0101 = biological target: T2, HLA-DRB1*0101 (human); assay: competitive MHC class II binding assay
T2 construct: human MHC class II allotype

HLA-DRB1*0301 = biological target: T3, HLA-DRB1*0301 (human); assay: competitive MHC class II binding assay
T3 construct: human MHC class II allotype

HLA-DRB1*0401 [1] = biological target: T4, HLA-DRB1*0401 (human); assay: competitive MHC class II binding assay
T4 construct: human MHC class II allotype

HLA-DRB1*0701 [2] = biological target: T5, HLA-DRB1*0701 (human); assay: competitive MHC class II binding assay
T5 construct: human MHC class II allotype

HLA-DRB1*1101 [3] = biological target: T6, HLA-DRB1*1101 (human); assay: competitive MHC class II binding assay
T6 construct: human MHC class II allotype

HLA-DRB1*1301 = biological target: T7, HLA-DRB1*1301 (human); assay: competitive MHC class II binding assay
T7 construct: human MHC class II allotype

HLA-DRB1*1501 = biological target: T8, HLA-DRB1*1501 (human); assay: competitive MHC class II binding assay
T8 construct: human MHC class II allotype

DQA1*0102/DQB1*0602 [4] = biological target: T1, DQA1*0102/DQB1*0602; assay: competitive MHC class II binding assay
HLA-DRB1*0701 [5] = biological target: T5, HLA-DRB1*0701; assay: competitive MHC class II binding assay; competitor: control peptide Influenza haemagglutinin 307-319;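 as to ratio of IC50 to that of the control peptide: each peptide was tested for its capacity to displace a known reference binder from human MHC class II allotypes, and its IC50 is expressed relative to that of the reference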
HLA-DRB1*1101 [6] = biological target: T6, HLA-DRB1*1101; assay: as above
DQA1*0102/DQB1*0602 [7] = biological target: T1, DQA1*0102/DQB1*0602; assay: competitive MHC class II binding assay; competitor: control peptide Human Insulin B 1-15
HLA-DRB1*0401 [8] = biological target: T4, HLA-DRB1*0401; assay: competitive MHC class II binding assay; competitor: control peptide Influenza haemagglutinin 307-319;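 as to ratio of IC50 to that of the control peptide: each peptide was tested for its capacity to displace a known reference binder from human MHC class II allotypes, and its IC50 is expressed relative to that of the reference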

Binder | binding result (HLA-DRB1*0101) | binding result (HLA-DRB1*0301) | binding result (HLA-DRB1*0401 [1]) | binding result (HLA-DRB1*0701 [2]) | binding result (HLA-DRB1*1101 [3]) | binding result (HLA-DRB1*1301) | binding result (HLA-DRB1*1501) | binding result (DQA1*0102/DQB1*0602 [4]) | ratio of IC50 to that of the control peptide (HLA-DRB1*0701 [5]) [ratio] | ratio of IC50 to that of the control peptide (HLA-DRB1*1101 [6]) [ratio] | ratio of IC50 to that of the control peptide (DQA1*0102/DQB1*0602 [7]) [ratio] | ratio of IC50 to that of the control peptide (HLA-DRB1*0401 [8]) [ratio]
RNSWDTNWGDNGYG [HDM16A] | no binding | no binding | no binding | no binding | no binding | no binding | no binding | no binding |  |  |  | 
VDFKGELAMRNIE [HDM51] |  |  |  |  |  |  |  |  | 20.9 | 30.9 |  | 
KDLDAFRHYDGRT [HDM12] | no binding | no binding | no binding | no binding | no binding | no binding | no binding | no binding |  |  |  | 
KAVDEAVAAIEKS [HDM28] | no binding | no binding | no binding | no binding | no binding | no binding | no binding | no binding |  |  |  | 
ETFDPMKVPDHSDK [HDM29A] | no binding | no binding | no binding | no binding | no binding | no binding | no binding | no binding |  |  |  | 
KVLAPAFKKELER [HDM50] | no binding | no binding | no binding | no binding | no binding | no binding | no binding | no binding |  |  |  | 
KRVGDANVKSEDG [HDM36] | no binding | no binding | no binding | no binding | no binding | no binding | no binding | no binding |  |  |  | 
HDDVVSMEYDLAYKL [HDM39A] |  |  |  |  |  |  |  |  | 0.71 |  | 0.1 | 76.2
RYVAREQSCRRPN [HDM06] |  |  |  |  |  |  |  |  |  | 30.4 | 0.86 | 
PNVNKIREALAQT [HDM07] | no binding | no binding | no binding | no binding | no binding | no binding | no binding | no binding |  |  |  | 
IDLKGELDMRNIQVR [HDM32A] | no binding | no binding | no binding | no binding | no binding | no binding | no binding | no binding |  |  |  | 
HIGIIDLKGELDMRN [HDM31A] | no binding | no binding | no binding | no binding | no binding | no binding | no binding | no binding |  |  |  | 
ETFDPMKVPDHSD [HDM29] | no binding | no binding | no binding | no binding | no binding | no binding | no binding | no binding |  |  |  | 
NKIREALAQTHSA [HDM08] | no binding | no binding | no binding | no binding | no binding | no binding | no binding | no binding |  |  |  | 
EYIQHNGVVQESY [HDM05] | no binding | no binding | no binding | no binding | no binding | no binding | no binding | no binding |  |  |  | 
IGIKDLDAFRHYD [HDM11] | no binding | no binding | no binding | no binding | no binding | no binding | no binding | no binding |  |  |  | 
AKIEIKASLDGLE [HDM27] | no binding | no binding | no binding | no binding | no binding | no binding | no binding | no binding |  |  |  | 
NSVNVPSELDLRSLRT [HDM17] | no binding | no binding | no binding | no binding | no binding | no binding | no binding | no binding |  |  |  | 
DKFERHIGIIDLK [HDM30] |  |  |  |  |  |  |  |  | 6.2 |  |  | 
IGIIDLKGELDMRN [HDM31] | no binding | no binding | no binding | no binding | no binding | no binding | no binding | no binding |  |  |  | 
RGLKQMKRVGDAN [HDM35] |  |  |  |  |  |  |  |  |  | 1.26 |  | 
EAVFEANQNTKTAK [HDM22A] |  |  |  |  |  |  |  |  |  | 80 |  | 329
RNQSLDLAEQELVDCASQH [HDM03C] |  |  |  |  |  |  |  |  |  |  | 0.16 | 
KSETFDPMKVPDHSD [HDM29B] | no binding | no binding | no binding | no binding | no binding | no binding | no binding | no binding |  |  |  | 
ANVKSEDGVVKAH [HDM37] | no binding | no binding | no binding | no binding | no binding | no binding | no binding | no binding |  |  |  | 
RTIIQRDNGYQPNY (solubility test: NO) [HDM13] | no binding | no binding | no binding | no binding | no binding | no binding | no binding | no binding |  |  |  | 
VSMEYDLAYKLGDLH [HDM40A] |  |  |  |  |  |  |  |  | 2.29 | 6 |  | 
